Reference: patent US20200197483A1 (MOREHOUSE SCHOOL OF MEDICINE, published 2020)

B1: HIV-1 Nef SMRwt peptide (peptide)
peptide: VGFPVAAVGFPVDYKDDDDK
notes: Synthetic peptide with two SMR motifs and a C-terminal FLAG tag; also called SMRwt (wide-type) peptide; antagonist peptide
B2: HIV-1 Nef SMRmut peptide (peptide)
peptide: AGFPVAAAGFPVDYKDDDDK
notes: Synthetic negative control peptide; the first valine of each VGFPV motif is changed to alanine; also called SMRmut (mutant) peptide; negative control peptide

Tests used:
[1] = biological target: T1, Mortalin (UniProt P38646 47-679); assay: immunoprecipitation from Jurkat lysate, Western blot with anti-mortalin antibody
T1 construct: Endogenous protein pulled down from Jurkat cell lysate (a human T cell line); also called Glucose-regulated protein 75 (GRP75)

[2] = biological target: T2, E. coli DnaK protein (Escherichia coli, UniProt P0A6Y8 2-638); assay: ANTI-FLAG M2 immunoprecipitation from E. coli lysate, Western blot with anti-DnaK antibody
T2 construct: Endogenous protein in E. coli lysate; also called heat shock protein 70 (Hsp70)
T2 sequence (P0A6Y8 2-638 limits assumed): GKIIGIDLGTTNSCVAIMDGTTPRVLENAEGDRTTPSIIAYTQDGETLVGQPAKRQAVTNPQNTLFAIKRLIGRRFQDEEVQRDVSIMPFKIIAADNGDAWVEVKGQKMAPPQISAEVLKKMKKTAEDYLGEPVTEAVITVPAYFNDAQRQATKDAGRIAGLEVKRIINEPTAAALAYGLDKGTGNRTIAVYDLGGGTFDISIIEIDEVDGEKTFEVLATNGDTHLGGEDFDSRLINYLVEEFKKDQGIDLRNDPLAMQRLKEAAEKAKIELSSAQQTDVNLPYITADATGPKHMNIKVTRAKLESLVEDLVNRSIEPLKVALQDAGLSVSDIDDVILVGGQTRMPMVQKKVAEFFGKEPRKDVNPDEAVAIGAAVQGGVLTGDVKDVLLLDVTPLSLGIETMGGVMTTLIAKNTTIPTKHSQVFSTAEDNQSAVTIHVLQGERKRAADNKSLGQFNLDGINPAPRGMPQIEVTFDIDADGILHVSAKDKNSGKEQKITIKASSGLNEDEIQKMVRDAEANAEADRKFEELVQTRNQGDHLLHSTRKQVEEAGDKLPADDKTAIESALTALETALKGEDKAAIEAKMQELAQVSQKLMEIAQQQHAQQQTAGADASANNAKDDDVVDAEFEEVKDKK

T1 sequence (P38646 47-679 limits assumed): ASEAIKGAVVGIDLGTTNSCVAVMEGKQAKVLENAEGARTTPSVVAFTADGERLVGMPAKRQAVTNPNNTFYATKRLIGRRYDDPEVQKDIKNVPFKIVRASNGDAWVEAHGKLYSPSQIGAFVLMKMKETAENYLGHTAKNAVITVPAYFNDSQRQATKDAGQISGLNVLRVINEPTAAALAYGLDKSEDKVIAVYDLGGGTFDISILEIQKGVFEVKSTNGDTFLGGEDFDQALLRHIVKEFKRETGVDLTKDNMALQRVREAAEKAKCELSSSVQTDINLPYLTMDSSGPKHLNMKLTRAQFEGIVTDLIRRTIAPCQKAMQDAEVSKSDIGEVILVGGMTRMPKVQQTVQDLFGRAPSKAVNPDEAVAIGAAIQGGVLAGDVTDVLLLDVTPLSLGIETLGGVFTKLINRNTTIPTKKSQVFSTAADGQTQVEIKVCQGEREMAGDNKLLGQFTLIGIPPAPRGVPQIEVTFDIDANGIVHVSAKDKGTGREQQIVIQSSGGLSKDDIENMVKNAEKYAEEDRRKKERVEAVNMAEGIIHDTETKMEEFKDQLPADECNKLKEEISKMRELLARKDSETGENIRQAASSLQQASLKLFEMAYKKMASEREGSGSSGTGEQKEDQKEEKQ

| Binder | binding result [1] | binding result [2] |
| --- | --- | --- |
| B1 | binds | binds |
| B2 | no binding | no binding (tested: 1 µg peptide with 1 mg E. coli lysate) |
